Measurements reported in the DeepSol protein solubility set.

experiment: soluble on expression in E. coli; label from the status in PepcDB or PDB records

| Sequence | soluble on expression in E. coli |
| --- | --- |
| MSRRRQFDDEDEVQMKRRRGAPLIEDVEKKLQGVIGKVGENTGSSIECNLDKLTAFLHDDLEKYRASIIDIIAGCAIYLPNRVTVYTTLVGLLNSKNFNFGGDVVEKLISEQQDLLSKQKYQEAQNLAIFLCDLGNSGVLTAQSIGEYLESFIAAAFEENMPQVRNDYYIQTVLRCLPWIGKELTEKAPEQMENIGEAIGKYLELRNKNHVALLQVWREGSTDQKQEDYLESLSAQIEALRNADWVENHIPRHYSGFETTLQDALQHNLPSFQSPEHTSDMIYPYPLVVFRLFQDADCSAFSSKPLPGDSSIDRFLFEGEIAWIIEKNQFNRKACARELLAFAEENPSVPIGFLIFETIFGQMLRLPHAPYPAIFHCSLVLELLKLKPDDYPQILVQTVECIYRRADSMQPVCIDRMVDWFSFHLSNFQYRYTWTDWKDCLNKDAFSGSQIFVREVIEKCRRFGSYEKIIAALPQDFVKIHPCSPEVRYLIDEEDTALVQRAETFTQMFQERQPAEAFLNELKSNDENDELPYNINEFGLFVMVMLKMASKTYSHNFSALFRYQTTLKTVCDASELYQEKLLETLYSCWKTNQQMLMILTDKLLKMQVIDCSAVVGWLFDEKMWQEHDRQWLFEVLNQALEKLTRQINVVEKDIKELTEKTENKIKEEDDEESDIKMDEDETKEEKFKQDLEDLENNKEKLERMVTFQKGLFNDFLIAFIEEIKNAATSNTSEMDGSGDTPGTQTPKFMWLRGRFCHVLLAHAETLLKHSSNIADEVFSEGTDPSIIECFNQFQSLRL | not soluble |
| MHTVVMTKGVPDFREGQVSFDEDGHLERGKTPTVMNPNDKHALRAAFQTKVRNGGHVSLMSMGPPGYKEVLQEGMRDVYADDLYLLSDREMGAADTWATAMTVATGLQNLEEQPDLVFAGFKTADGETGHTGPQTCWCLDWPIITHVLSLDIDEDAGTVRAKRLVDGDISEIETVEAPMPCFIVADPEFEPTYRKASHRLKHKDLREETQERATEYEEYLTIWDHEGLNLDPDYIGLDGSPTIVAGVDPIPKAPSEREATVIEADEREALEPVLDELTPYAAGD | not soluble |
| GAMGSQQIATAKDKYEWLVSRIVKNHNENWLSVSRKMQASPEYQDYVYLEGTQKAKKLFLQHIHRLKHE | soluble |
| MEGYPKIQYHGFIGNNRTAMLVAMNGYIDWGCLPNFNSNAVFSSILDKNKGGYFAIFPSDTTDVYVDQYYKEMTNVLVTEFVKNGKIILRLTDFMPDSEYGKISFPEVHRFVESFSEPIDITIDFKPTFNYLEHHHHHH | not soluble |
| MSGATEMAVSPDGKEVAFILRGDVYVTSVEYKTTKQVTNTPCQERGIDFAPDGRTLVYASERGGLWQLYTSTIVRKDEKQFTYATELKEERLTNSDIASFNPKYSPDGKEIAFLENRTAIRVINLKTKKVRTVMDAQYQYSYSDGDQWFEWSPDSKWILSEFIGIGGWNNKDIVLLNADGKGEMHNLTESGYSDGNAKWVLGGKAMVWFSDRAGYRSHGSWGAQYDAYIMFFDVDALEHHHHHH | not soluble |
| MAKKTSSKGKLPPGPTPLPFIGNYLQLNTEQMYNSLMKISERYGPVFTIHLGPRRVVVLCGHDAVKEALVDQAEEFSGRGEQATFDWLFKGYGVAFSNGERAKQLRRFSIATLRGFGVGKRGIEERIQEEAGFLIDALRGTHGANIDPTFFLSRTVSNVISSIVFGDRFDYEDKEFLSLLRMMLGSFQFTATSTGQLYEMFSSVMKHLPGPQQQAFKELQGLEDFIAKKVEHNQRTLDPNSPRDFIDSFLIRMQEEEKNPNTEFYLKNLVMTTLNLFFAGTETVSTTLRYGFLLLMKHPEVEAKVHEEIDRVIGKNRQPKFEDRAKMPYTEAVIHEIQRFGDMLPMGLAHRVNKDTKFRDFFLPKGTEVFPMLGSVLRDPRFFSNPRDFNPQHFLDKKGQFKKSDAFVPFSIGKRYCFGEGLARMELFLFFTTIMQNFRFKSPQSPKDIDVSPKHVGFATIPRNYTMSFLPRHHHH | soluble |
| MGSDKIHHHHHHMTPSIPPEVAQHLGYYVYLYVDPRTEQVFYVGKGQGQRVLSHLSAEGESRKAQILAELRQAQLSPRLDILAHGLPDEATAYRIEAAAIDLLGLDSLSNLVRGWQSVRSGRRSLEELVTYYAAPPAVITDPVMLIRSNRLYWHGMPAQELYEATRGVWKVAKWRQQEVKYALAVFEGVVREVYTIESWHPAGQTPYQTRLAEAVNDPQRWEFVGHVAPEEVRNRYLYHSVTASFARNAQNPIAYPPVT | not soluble |
| MGSDKIHHHHHHAQQRTEYNRKGDEAMKRLDYSDAKMWYEEGVSQCDAYSIDQLTTIWLSNERMRPSMRSLMNKCLNCLTVKATEDDPDAISKLIIYYSEGIGTPKSEELATYWKEYQEILLKPAEPAAQPIDSAAVSPKKRMEFFAGYSYSIESPYGITVGGMGQRFGWYVRFKTNMSFMNYTDECNNQGQIIKFSNSEGESYELNTGKSSKTNSIAGTAGLIVKCFPWLYASVGLGYGERALLHSFTTHSYENYDSTREVWCRNIDSSYKGVAAEVDLMMKITNSVFISVGCNTVNFKYLDLNAGLGVFF | not soluble |
| MRMDLSRIRNFSIIAHVDHGKSTLADRILELTHAVSDREMREQFLDSLELERERGITIKASAVRVTYRAKDGEEYVFHLIDTPGHVDFTYEVSRALAAVEGVLLVVDASQGVEAETLAKFYMALEHGHVIIPVINKIDLPNARPLEVALEVEEVLGLPADEAIFASGKTGEGVEEILEAIVQRIPPPKGDPEAPLKALIFDSVYDAYQGVIPYLRLFEGRVRPGDRIRIYSTGKEFTVDKVGVFTPQGLVATEALEAGEVGWLVAAIRDIHDVQVGDTITLADRPTPSPYPGFRPAKPVVFAGLYPVDSGDYGKLRDALEKLKLNDAALTFEPESSTALGFGFRCGFLGLLHAEIVQERLEREFGLSLIATAPSVVYKVRLKSGEEVEVHNPADLPDPTRIEEILEPYVKLTIFTPEEYVGSLMQLLQEKRGRLVNMNYLPGAQKRVELVYEAPFAEILYDFHDRLKSVSRGYASMDYEQAGYRPGDLVKVNVLVHGEVVDALTFIAHREKAYTMARAIVDKLAEVIPRQLFEVPIQAAIGGKIIARATVKALRKDVLAKCYGGDVTRKKKLLEKQKEGKKRLKAIGKVEVPQEAFLAVLSAGRDEPKG | soluble |
| MAHHHHHHMSQQQWTPDQRRQQIAEMLRNKGVICRDFLFTGRCSRSPTCPYMHVANGETRPVPWSVCTFFTQGKCLRDGCSFFHGTQAQLEELHASGAPVYRPQDYMKIAVPPAEYLNADGSIATHLSIAAVPMTPALHVVHGPTVSHENAVNSFQPVLVMQPNSQAIAPTMFASQGRTAHSTPSHFAFYANAPITSQMPTHSAATVLQPTLHTVQPTTFYQAANALLAQPQQHFAPVPQLNTPQQHQLTQQALGSRVYFHIQPH | not soluble |
| MTSNKNVKTLDEAIRELTRAKAILDSARPTAVNLVWATSRMLTLAKNAVENGNAKTINELIDLMKVEAKRIFDEEYDAEIQMGLYGLEKLNDSDT | not soluble |
| MTPDFQIVTQRLQLRLITADEAEELVQCIRQSQTLHQWVDWCHALFSQQEAEQFIQATRLNWVKAEAYGFGVFERQTQTLVGMVAINEFYHTFNMASLGYWIGDRYQRQGYGKEALTALILFCFERLELTRLEIVCDPENVPSQALALRCGANREQLAPNRFLYAGEPKAGIVFSLIP | soluble |
| MTDSKYFTTTKKGEIFELKNELNSDKKEKKKEAVKKVIASMTVGKDVSALFPDVVNCMQTDNVELKKLVYLYLMNYAKSQPDLAIMAVNTFVKDCEDPNPLIRALAVRTMGCIRVEKITEYLCDPLRRCMKDEDPYVRKTAAVCVAKLHDMNPALVKEQGFVELLNDLLSDANPMVVANAVAALTEMNEQQTVIEVNSQMVNKLLTALNECTEWGQVFILDALAGYTPRDERETQNICERISPRLAHANAAVVLSTVKVLMKLIDMMPADSDFITQLTKKLAPPMVTLLSAEPEIQYVALRNINLIVQKRPDILKQEMKVFFVKYNDPIYVKMEKLDIMIRLAQQNNIAQVLSELKEYATEVDVDFVRKSVRAIGRCAIKVEASSERCVQTLLELIQTKVNYVVQEAVVVIKDIFRKYPNRYESIISALCENLDTLDEPEARASMIWIIGEYAERIDNADELLESFVEGFHDENTQVQLQLLTAVVKLFLKRPGVAQALVQRVLSLATQDSDNPDLRDRGFIYWRLLSADPAAAKNVVLTEKPLISEETDLLEPSLLEQLVCHIGTLASVYHKPPSAFIDPAKAPLRQINPIPAAKFGSSLLDTSSTPNAARNGSAAAPTVIPSQDQVIADLLSLDLNAPAASANTGAFGGAMSGTTSMGGLDDLLGLGGDPMPAAPTNSASYNPFDGLGGLGGAAPAAPPSQQPASIGGLAEIFGSGGFGGSSGITYPKELWLDASKAMGMQVEGTFVRRGGKIFMEMTITNRAMQAISGFALQFNKNSFGLIPVEQVNPAPILPNQSQNYTIACDTTGAVQVTTPLTNLQVSCSL | not soluble |
| MHHHHHHSSGVDLGTENLYFQSNAMTNIQKRFYKGRVALNVLANNIENAKDIFEAAEGYVVVGVLSKDYPTVEEAVTAMKAYGKEIDDAVSIGLGAGDNRQAAVVAEIAKHYPGSHINQVFPSVGATRANLGEKDSWINSLVSPTGKVGYVNISTGPISAAGEEKAIVPIKTAIALVRDMGGNSLKYFPMKGLAHEEEYRAVAKACAEEGFALEPTGGIDKENFETIVRIALEANVEQVIPHVYSSIIDKETGNTKVEAVRELLAVVKKLVDQYA | soluble |
| MSTFFRQTAQAMIAKHINRFPLLKLDQVIDWQPIEQYLNRQKTRYLRDHRGRPAYPLLSMFKAVLLGQWHSLSDPELEHSLITRIDFNLFCRFDELSIPDYSTLCRYRNWLAQDDTLSELLELINCQLTEKGLKVEKASAAVIDATIIQTAGSEQRQAIEVDEEGQISGQTTPSKDSDARWIKKNGLYKLGYKQHTRTDAEGYIEKLHITPANAHECKHLSPLLEGLPEGTTVYADKGYDSAENRQHLEEHQLLDGIMSKACRNRPLSEVQTKRNRYLSKTRYSGLNLNQDKATKPQTVQIVRQGEATPYWFKFNPLYVVEQSFGTLHRKFRYARAAYFGLIKVSAQSHLKAMCLNLLKAANRLSAPAAA | not soluble |
| MGSVSTGNAGSGTVGTSTTSRADVMTFQPSSLPVSYVGETYNVQVGVTGGVGPYGYRLTAGTLPPGLKFAGGALSGTPTKAGSYSFAIQATDANLSTRVQEYTMNVDALPPLALKPTLPPGEIRGETRIPVTIQAPRAVRAARLSWDLGKDVQVTRVQPADAGSVVFWQQRGSVLTVDLGFRTVPRPDARIALITVKPAKAVTLKADALGYEARDGSGKMLVDKKRPGSEPVKPAEQPGDPKVDPKAADQKATDQKATDPKTVDPKTVTPADTVEGGPLPSPALPTPSLPPTLPPVTTPPANTPPVPTPTPPANQPAPAPAPQPAPAPQPTPPSGTGGALEHHHHHH | not soluble |
| MVVEVDSMPAASSVKKPFGLRSKMGKWCCRCFPCYRESGKSNVGTSGDHDDSAMKTLRSKMGKWCHHCFPCCRGSGKSNVGASGDHDDSAMKTLRNKMGKWCCHCFPCCRGSGKSKVGAWGDYDDSAFMEPRYHVRGEDLDKLHRAAWWGKVPRKDLIVMLRDTDVNKKDKQKRTALHLASANGNSEVVKLLLDRRCQLNVLDNKKRTALIKVCSSQLYQHEAVQCQEDECALMLLEHGTDPNIPDEYGNTTLHYAIYNEDKLMAKALLLYGADIESKNKHGLTPLLLGVHEQKQQVVKFLIKKKANLNALDRYGRTALILAVCCGSASIVSLLLEQNIDVSSQDLSGQTAREYAVSSHHHVICQLLSDYKEKQMLKISSENSNPENVSRTRNK | not soluble |
| MGGSHHHHHHGMASALVRISKPKTFQAYLDDCHRRYSCAHCRAHLANHDDLISKSFQGSQGRAYLFNSVVNVGCGPAEERVLLTGLHAVADIHCENCKTTLGWKYEQAFESSQKYKEGKYIIELNHMIKDNGWD | not soluble |
| MRTITFNELRKIKDSLPSGSMHRIADELGLHVDTVRNFFGGHNFKEGKSVGIHLEPGPDGGLVMLDDTTVLDRALKILDEINMSMQKEQATEPMQI | not soluble |
| NVFMRKKDNTIDYRYFIEPNIMTSNIDDLLLEKPVAFQLEQFQKELIDSNVNPQLVQLVVDDATI | not soluble |
